Data from PMC4814101.

What was measured:
[1] = target: Bothropstoxin I (Bothrops jararacussu) (UniProt Q90249); assay: SPR; Biacore T200; […]; 30 μL/min, 37°C; running buffer 0.1 M phosphate, 27 mM KCl, 1.37 M NaCl, pH 7.4; 1:1 Langmuir model
[2] = target: Bothropstoxin II (Bothrops jararacussu) (UniProt P45881); assay: as above
Sequence of UniProt P45881 (P45881 17-138): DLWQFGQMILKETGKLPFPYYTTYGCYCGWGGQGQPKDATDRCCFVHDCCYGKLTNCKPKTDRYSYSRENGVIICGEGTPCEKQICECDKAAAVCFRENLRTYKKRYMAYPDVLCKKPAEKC

Sequence of UniProt Q90249 (Q90249 17-137): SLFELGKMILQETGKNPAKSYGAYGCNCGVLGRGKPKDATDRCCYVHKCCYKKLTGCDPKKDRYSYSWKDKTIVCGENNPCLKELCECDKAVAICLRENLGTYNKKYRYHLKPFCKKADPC

Substance	Kd [1] [µM]	koff [1] [s⁻¹]	kon [1] [M⁻¹ s⁻¹]	Kd [2] [µM]	koff [2] [s⁻¹]	kon [2] [M⁻¹ s⁻¹]
VHH KC329718	0.0539	0.0346	642000	0.77	0.258	335000
VHH KF498608	0.668	0.119	179000	0.0427	0.0302	
VHH KF498607	0.629	0.162	257000		0.516	184000
